Patent US20190233808

Molecular target: FITC-labeled bovine type-1 collagen (Chondrex, Cat# 4001) (UniProt P02453)
Sequence (P02453 162-1217, chain 1 of 2): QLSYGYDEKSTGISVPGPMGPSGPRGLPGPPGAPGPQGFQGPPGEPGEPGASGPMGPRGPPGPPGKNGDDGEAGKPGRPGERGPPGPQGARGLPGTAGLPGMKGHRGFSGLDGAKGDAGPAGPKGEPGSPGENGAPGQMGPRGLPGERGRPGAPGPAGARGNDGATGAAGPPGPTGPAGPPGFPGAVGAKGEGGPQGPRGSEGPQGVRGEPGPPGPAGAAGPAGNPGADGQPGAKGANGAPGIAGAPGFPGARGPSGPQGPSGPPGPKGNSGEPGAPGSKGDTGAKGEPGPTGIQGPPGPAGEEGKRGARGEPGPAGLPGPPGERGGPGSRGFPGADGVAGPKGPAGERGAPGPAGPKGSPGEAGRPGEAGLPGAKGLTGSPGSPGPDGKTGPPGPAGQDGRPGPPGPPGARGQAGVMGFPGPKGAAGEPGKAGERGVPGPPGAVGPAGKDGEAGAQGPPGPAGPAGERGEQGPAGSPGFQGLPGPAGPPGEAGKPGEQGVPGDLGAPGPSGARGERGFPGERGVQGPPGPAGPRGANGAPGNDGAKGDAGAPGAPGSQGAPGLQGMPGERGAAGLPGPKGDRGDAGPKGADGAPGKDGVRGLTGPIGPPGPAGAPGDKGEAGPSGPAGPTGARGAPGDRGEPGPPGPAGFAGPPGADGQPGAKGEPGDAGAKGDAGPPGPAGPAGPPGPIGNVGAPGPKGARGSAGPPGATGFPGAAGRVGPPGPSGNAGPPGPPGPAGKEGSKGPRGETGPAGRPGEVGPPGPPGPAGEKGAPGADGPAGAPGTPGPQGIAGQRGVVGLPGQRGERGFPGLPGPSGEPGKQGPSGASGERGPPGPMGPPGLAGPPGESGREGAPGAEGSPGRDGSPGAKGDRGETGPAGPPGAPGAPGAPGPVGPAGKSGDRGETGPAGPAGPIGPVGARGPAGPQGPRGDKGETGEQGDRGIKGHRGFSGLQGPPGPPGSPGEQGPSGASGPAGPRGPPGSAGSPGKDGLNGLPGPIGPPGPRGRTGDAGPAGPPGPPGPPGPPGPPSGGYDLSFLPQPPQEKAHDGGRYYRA
Sequence (P02453 other isoform, or with tags, fused parts or gaps, chain 2 of 2): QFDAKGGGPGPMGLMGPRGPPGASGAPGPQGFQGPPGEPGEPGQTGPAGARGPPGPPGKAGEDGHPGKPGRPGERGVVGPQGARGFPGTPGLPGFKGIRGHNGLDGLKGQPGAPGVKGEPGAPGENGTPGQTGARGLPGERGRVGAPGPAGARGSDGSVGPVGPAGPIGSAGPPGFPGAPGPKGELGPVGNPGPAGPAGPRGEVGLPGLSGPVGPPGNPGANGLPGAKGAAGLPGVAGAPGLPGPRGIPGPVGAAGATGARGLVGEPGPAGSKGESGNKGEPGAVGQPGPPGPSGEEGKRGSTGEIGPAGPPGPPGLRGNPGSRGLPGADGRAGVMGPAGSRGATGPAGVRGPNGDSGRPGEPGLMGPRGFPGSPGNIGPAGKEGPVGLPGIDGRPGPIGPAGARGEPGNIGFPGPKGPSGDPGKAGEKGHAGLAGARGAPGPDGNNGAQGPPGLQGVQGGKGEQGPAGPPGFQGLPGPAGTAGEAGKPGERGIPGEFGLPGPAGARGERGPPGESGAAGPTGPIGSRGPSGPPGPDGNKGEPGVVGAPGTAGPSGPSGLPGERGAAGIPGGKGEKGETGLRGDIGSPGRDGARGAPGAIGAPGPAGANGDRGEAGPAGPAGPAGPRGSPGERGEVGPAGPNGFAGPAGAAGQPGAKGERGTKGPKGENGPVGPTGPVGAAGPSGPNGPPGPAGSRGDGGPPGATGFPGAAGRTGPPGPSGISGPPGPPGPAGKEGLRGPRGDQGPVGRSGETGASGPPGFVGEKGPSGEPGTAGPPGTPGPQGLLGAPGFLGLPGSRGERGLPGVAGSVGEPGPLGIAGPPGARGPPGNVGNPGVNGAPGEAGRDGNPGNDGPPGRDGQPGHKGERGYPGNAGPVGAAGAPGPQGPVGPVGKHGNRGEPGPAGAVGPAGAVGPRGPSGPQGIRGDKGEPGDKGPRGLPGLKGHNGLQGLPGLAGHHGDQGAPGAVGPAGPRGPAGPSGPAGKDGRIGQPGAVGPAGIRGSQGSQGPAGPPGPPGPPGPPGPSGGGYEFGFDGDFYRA

trypsin (TPCK-treated)
collagen degradation on SDS PAGE: did not show degradation of type-1 collagen
